For 10 sequences, protein stability index results are on record in the supplement of paper PMC10724198.

± gives the standard deviation of the averaged measurements.

The test system of data set [1] is Saccharomyces cerevisiae. In words: protein stability index of tFT-peptide fusion (C-terminal peptide) (PSI (0-1 scale)); higher = more stable (slower turnover). The method, then:
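MPS profiling in S. cerevisiae of the tFT-X12 degron library: putative degron peptides plus stable controls, 12 aa, fused to the C-terminus of a sfGFP-mCherry timer. Cells are FACS-sorted into 8 mCherry/sfGFP bins and deep-sequenced. PSI runs from 0 (unstable) to 1 (stable). Backgrounds are wild type, das1Δ and doa10Δ at 30 °C, and wild type, das1Δ, cdc34-1 and cdc53-1 at 37 °C; 2-3 technical replicates each.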

In data set [2] the test system is Saccharomyces cerevisiae. The data set is described as above. Particulars: genetic background: wild type; temperature: 30 C.
[3] abbreviates: genetic background: cdc34-1, temperature: 37 C.
Setting [4] is: genetic background: cdc53-1, temperature: 37 C.
The mark [5] stands for this setting: genetic background: das1 deletion, temperature: 30 C.
Setting [6] is: genetic background: das1 deletion, temperature: 37 C.
[7] abbreviates: genetic background: doa10 deletion, temperature: 30 C.
[8] abbreviates: genetic background: wild type, temperature: 30 C.
Setting [9] is: genetic background: wild type, temperature: 37 C.
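Note: PSI is a weighted mean of sequencing reads over stability bins, variants kept only with over 10 reads, mCherry proximal and sfGFP distal, peptide attached via GGGS linker.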

With GGRLGRAGGGGR, the protein stability index was found to be 0.633 ± 0.026 in data set [1] (setting [3]); 0.7243 ± 0.0029 in data set [1] (setting [4]); 0.642 ± 0.024 in data set [1] (setting [5]); 0.7168 ± 0.00089 in data set [1] (setting [6]); 0.66 ± 0.026 in data set [1] (setting [7]); 0.6472 ± 0.0025 in data set [1] (setting [8]). The protein stability index in data set [1] (setting [9]) came to 0.68996 ± 0.00034; in data set [2], 0.639 ± 0.22.

GGVVLVVVFCCV: the protein stability index in data set [1] (setting [3]) is 0.165 ± 0.0053; in data set [1] (setting [4]), 0.34 ± 0.02; in data set [1] (setting [5]) it was 0.217 ± 0.025; in data set [1] (setting [6]) it was 0.352 ± 0.01; in data set [1] (setting [7]) it was 0.18 ± 0.015; in data set [1] (setting [8]), 0.204 ± 0.029. In addition, the protein stability index worked out at 0.3395 ± 0.00053 in data set [1] (setting [9]) and 0.42 ± 0.13 in data set [2].

With GHFILFWVFCFM, the protein stability index is 0.316 ± 0.058 in data set [1] (setting [3]); 0.39 ± 0.014 in data set [1] (setting [4]); 0.31 ± 0.046 in data set [1] (setting [5]); 0.453 ± 0.031 in data set [1] (setting [6]); 0.254 ± 0.0053 in data set [1] (setting [7]); 0.303 ± 0.023 in data set [1] (setting [8]). Besides, the results for the protein stability index in data set [1] (setting [9]) and in data set [2] were 0.409 ± 0.024 and 0.369 ± 0.024, respectively.

Consider GHSALWQVPRLM, for which the protein stability index in data set [1] (setting [3]) is 0.697 ± 0.053; in data set [1] (setting [4]) it was 0.733 ± 0.014; in data set [1] (setting [5]), 0.65 ± 0.048; in data set [1] (setting [6]) it was 0.7535 ± 0.0069; in data set [1] (setting [7]), 0.26 ± 0.013; in data set [1] (setting [8]), 0.29 ± 0.0041. Moreover, the protein stability index in data set [1] (setting [9]) amounted to 0.574 ± 0.023; in data set [2], 0.474 ± 0.015.

Take GLCGVVVGCWVR: the protein stability index in data set [1] (setting [3]) was 0.395 ± 0.017; in data set [1] (setting [4]), 0.417 ± 0.017; in data set [1] (setting [5]), 0.286 ± 0.027; in data set [1] (setting [6]), 0.484 ± 0.016; in data set [1] (setting [7]), 0.293 ± 0.011; in data set [1] (setting [8]) it was 0.283 ± 0.021. Besides, the protein stability index in data set [1] (setting [9]) was 0.4657 ± 0.0044; in data set [2], 0.397 ± 0.014.

On to GLDLLTKFSKEC, for which the protein stability index was 0.678 ± 0.049 in data set [1] (setting [3]); 0.734 ± 0.036 in data set [1] (setting [4]); 0.617 ± 0.02 in data set [1] (setting [5]); 0.741 ± 0.015 in data set [1] (setting [6]); 0.291 ± 0.027 in data set [1] (setting [7]); 0.33 ± 0.015 in data set [1] (setting [8]). The protein stability index is 0.585 ± 0.011 in data set [1] (setting [9]) and 0.465 ± 0.034 in data set [2].

Regarding GLFFLCLLSMCF, the protein stability index in data set [1] (setting [3]) turned out to be 0.34 ± 0.012; in data set [1] (setting [4]) it was 0.303 ± 0.021; in data set [1] (setting [5]), 0.306 ± 0.029; in data set [1] (setting [6]) it was 0.423 ± 0.023; in data set [1] (setting [7]), 0.336 ± 0.014; in data set [1] (setting [8]), 0.29 ± 0.029. The protein stability index in data set [1] (setting [9]) amounted to 0.396 ± 0.0071; in data set [2], 0.384 ± 0.061.

With GLNKGKYIKLYT, the protein stability index in data set [1] (setting [3]) came out at 0.68 ± 0.021; in data set [1] (setting [4]), 0.756 ± 0.017; in data set [1] (setting [5]), 0.635 ± 0.035; in data set [1] (setting [6]), 0.733 ± 0.08; in data set [1] (setting [7]), 0.4605 ± 0.0033; in data set [1] (setting [8]), 0.486 ± 0.0097. Further, the protein stability index was found to be 0.641 ± 0.034 in data set [1] (setting [9]) and 0.558 ± 0.089 in data set [2].

Turning to GLSVLLTCIHFV, the protein stability index stood at 0.537 ± 0.031 in data set [1] (setting [3]); 0.65 ± 0.042 in data set [1] (setting [4]); 0.482 ± 0.013 in data set [1] (setting [5]); 0.598 ± 0.01 in data set [1] (setting [6]); 0.164 ± 0.023 in data set [1] (setting [7]); 0.176 ± 0.026 in data set [1] (setting [8]). The protein stability index was 0.333 ± 0.014 in data set [1] (setting [9]) and 0.256 ± 0.0041 in data set [2].

Take GNRDLVNTSVEG: the protein stability index is 0.679 ± 0.029 in data set [1] (setting [3]); 0.721 ± 0.011 in data set [1] (setting [4]); 0.619 ± 0.045 in data set [1] (setting [5]); 0.715 ± 0.051 in data set [1] (setting [6]); 0.6331 ± 0.006 in data set [1] (setting [7]); 0.633 ± 0.033 in data set [1] (setting [8]). Besides, the protein stability index worked out at 0.6989 ± 0.0025 in data set [1] (setting [9]) and 0.547 ± 0.17 in data set [2].
